In the supplement of paper PMC9170038:

Tested on: MS2 coat protein
Assay: apparent KD of MS2 coat protein; designed switch direction (-1 OFF switch, 1 ON switch): -1; higher = weaker reporter binding
Procedure, shortened: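 Transcription of designed RNA switches on Illumina chips was done by stalled E. coli RNA polymerase. SNAP-549-labelled MS2 coat protein was then titrated in doubling steps from 0.7 or 1.5 nM to 3 µM, with steps of 0.8–1.5 h at the lowest and 10–20 min at the highest concentration. The per-design median over clusters of curve-fitted normalised fluorescence is reported as apparent KD.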

[1] = input ligand: microRNA oligo, concentration not stated
[2] = Eterna round: R95, input ligand: microRNA oligo, concentration not stated
[3] = Eterna round: R95, input ligand: FMN 200 uM
[4] = Eterna round: R95, input ligand: none

| Sequence | apparent KD of MS2 coat protein (input ligand: FMN 200 uM) [nM] | apparent KD of MS2 coat protein (input ligand: none) [nM] | apparent KD of MS2 coat protein [1] [nM] | apparent KD of MS2 coat protein [2] [nM] | apparent KD of MS2 coat protein [3] [nM] | apparent KD of MS2 coat protein [4] [nM] |
| --- | --- | --- | --- | --- | --- | --- |
| AUAACAUGCUGGUGAUCAUACAUGAGGAUCACCCAUGUAACAAGCUUUUUGUUCGUCUUAUAAUUUAAGAUCACCAG [Stov1/7-B2] (Eterna round: R97, puzzle: Sensor, turn-off variant 1) | 21.7 | 19.2 | – | – | – | – |
| UCGUCGUCUGCGCCUGGACACAUGAGGAUCACCCAUGUCCCUAGCGGUUUACCGCUGUGACAAAACAAGCUGCUCGU [Eternabot (Original) Solution 25] (Eterna round: R97, puzzle: Sensor, turn-off variant 1) | 145 | 185 | – | – | – | – |
| CGAUAUAAGUCAGGAUAUGAGCGCAACUGACGAUCAGAAGGGACACAUGAGGAUCACCCAUGUGAUCUAUCAAUAUUAUACAUC [Prohibition 92 - Jieux - Exclusion NG 1] (Eterna round: R96, puzzle: Exclusion NG 1) | 25.5 | 21.5 | 16.2 | – | – | – |
| AGAAACAGAGGAUAUACUUGAGGAUCACCCAAGUGUCACGGAAACACUGUGCUCCUUUGUAGAAGGCUGGAAUA [Dibeon] (Eterna round: R97, puzzle: Exclusion 3) | 382 | 63 | – | – | – | – |
| CCUCCACAUGAGGAUCACCCAUGUCAGGAUAUCGUGUGUGCGUUUUCGGUCUUUCGUGCGAGAAGGGACGUCUG (puzzle: Exclusion 1) | – | – | – | 52.7 | – | – |
| GGUGAGAGCAAGGAUAUGCAGAAGAGAGAAAGAGCAGAAGGUGCUACAUGAGGAUCACCCAUGUAGGAUGUGUU [JR_E6_Sub013] (puzzle: Exclusion 6) | – | – | – | 13.4 | 15.2 | 13.4 |
| AACCCUCGUGUUAGGAUAUCCAGCGUCCGGGCGAGGGAGAAGGGACAUGAGGAUCACCCAUGUUUCGAUGGACA [Xeinesed] (Eterna round: R97, puzzle: Brourd's mod of Exclusion 4) | 19.5 | 19 | – | – | – | – |
| GAUGGACAUGAGGAUCACCCAUGUAAGGAUAUACGGUUGGUAGAGAGAGAGAGAAAUGGUAGAAGGUACGGAAA [JR_Exclu1_Sub051] (puzzle: Exclusion 1) | – | – | – | 46.6 | 36.5 | 50.3 |
| AAUUAAUGUGUGAGGAUAUUGAUGGAAUGACUUAUUAAGAAGGCACAUGAGGAUCACCCAUGUGGGAAGUCACG [JR_BMEx4_Sub015] (Eterna round: R97, puzzle: Brourd's mod of Exclusion 4) | 27.6 | 18.6 | – | – | – | – |
| AAAUAACUAGGAUAUCGAGGCACAGACAUGAGGAUCACCCAUGUGUGGUCUUCGUGCUUACGAGAAGGAGUACGGC [Teceri] (Eterna round: R96, puzzle: Exclusion 5) | 199 | 305 | 175 | – | – | – |
| UGUGCGUAUGUGAGGAUAUGCUGGUCCUUGGCUCGGCAGAAGGCACAUGAGGAUCACCCAUGUGGUGUCGUACU [salish99_Bmod_ex4_067] (puzzle: Brourd's mod of Exclusion 4) | – | – | – | 75.6 | – | – |
| CUGAGCAGACGGAGAUCCAACAUGAGGAUCACCCAUGUCUCAAAAGCUUUUUGCUUGUCUUACUCUCCUCUGUUCUC [Atenve] (puzzle: Sensor v3, turn-off variant 1) | – | – | – | 103 | 13.9 | 11.3 |
| UAACAUGUAGAAGGAUAUCUGCACGUUUAGUGCAGAGAAGGUCUAACAUGAGGAUCACCCAUGUAGAUCAUUAAUUAAUUAAUU [ENG1/8-B2] (Eterna round: R96, puzzle: Exclusion NG 1) | 15.8 | 12.9 | 9.45 | – | – | – |
| UUUAAUUUAAUUAAGAUCACAUGAGGAUCACCCAUGUAAUUAUAGGAUAUCAGCUCGAAUAGAGCUGAGAAGGAUAAUUACAUA [ExNG3/5-A4] (Eterna round: R96, puzzle: Exclusion NG 3) | – | – | 67.6 | – | – | – |
| UGCAUGCUAGGAUAUGCCGAGGAGAACAUGAGGAUCACCCAUGUGACCCGGAUGCCUUGAGCAGAAGGAGCUACUA [EX5 C.19] (Eterna round: R97, puzzle: Exclusion 5) | 22.4 | 15.2 | – | – | – | – |
| UAAAUAAAUGUAGGAUAUCUGCACGUUUAGUGCAGAGAAGGACAUGAGGAUCACCCAUGUAUAGUAGCUUCGGCUACAAAUAAU [ENG1-C2] (Eterna round: R96, puzzle: Exclusion NG 1) | 115 | 76.3 | 42.2 | – | – | – |
| AUAAUAUAUGUAGGAUAUCUGCACGUGUAGUGCAGAGAAGGACAUGAGGAUCACCCAUGUAAUUAAGAUCAAUUAUUAAAUUAU [ENG1/4-B3] (Eterna round: R96, puzzle: Exclusion NG 1) | 83.8 | 38.1 | 35.5 | – | – | – |

| Sequence | apparent KD of MS2 coat protein (input ligand: FMN 200 uM) [nM] | apparent KD of MS2 coat protein (input ligand: none) [nM] | apparent KD of MS2 coat protein [1] [nM] | apparent KD of MS2 coat protein [2] [nM] | apparent KD of MS2 coat protein [3] [nM] | apparent KD of MS2 coat protein [4] [nM] |
| --- | --- | --- | --- | --- | --- | --- |
| AAUAACAGAGGAUAUACUAUUUUAUGUGUUUAUUGUUUUGAACAUGAGGAUCACCCAUGUAGAAGGCUGAUUGA [JMF 78] (puzzle: Exclusion 2) | – | – | – | 40.7 | – | – |
| UCUGUUUUGCGAGGAUAUCGACCAUUCCUCUUAACAUGAGGAUCACCCAUGUGCUAAACCUACAACGAGAAGGCGCUCAUACUC [JR_ExcNG2_Sub067] (Eterna round: R96, puzzle: Exclusion NG 2) | 60.8 | 51.9 | 50 | – | – | – |
| UUAUUACAAGCAAGAUCUCACAUGAGGAUCACCCAUGUGCUCGUCUUAUAAGGUACUGUGACGAAAGUCACGGUACC [Eli 100 v1] (Eterna round: R97, puzzle: Sensor, turn-off variant 1) | 14.8 | 17.3 | – | – | – | – |
| AACCUGAGGCUUUGCUUUAGGUUUACAUGAGGAUCACCCAUGUAGGAUAUGGUAGGCUUUGCUUACCAGAAGGACAUGUUAAUU [Mat - Exclusion NG 3 - Mod of JL - D26] (Eterna round: R96, puzzle: Exclusion NG 3) | 241 | 44.2 | 25 | – | – | – |
| AAGUCAUUAGGAUAUGAAUAGGGAGACAUGAGGAUCACCCAUGUUGAUAGAACGACAUGUUCAGAAGGAGUCGCUG [Eternabot (L1) Solution 45] (Eterna round: R97, puzzle: Exclusion 5) | 33.7 | 33 | – | – | – | – |
| GUAGAUCAGGCUUUCAUUGACAUGAGGAUCACCCAUGUUUUGAAAGGGUGAGAGAGGUGCUUCAUAUUCAGCUCUGA [JR_Sensorv2_tov_Sub1218] (Eterna round: R96, puzzle: Sensor v2, turn-off variant) | 76.4 | 61.1 | 55.3 | – | – | – |
| GGGCCCGGUGUGAGGAUAUCGGGCUCGAAAGGGCUCGAGAAGGCACAUGAGGAUCACCCAUGUAAGCCGGGCCC [-42.6, -40.5 kcal, A 23%, 4-0] (Eterna round: R97, puzzle: Brourd's mod of Exclusion 4) | 15.2 | 18.6 | – | – | – | – |
| CCGAGGUGGCGGUCCUAUGACAUGAGGAUCACCCAUGUACCUCGCCACGAGCUUUUUGCUCAUCUUAUAAUUCUCGG [Edbibice] (puzzle: Sensor v3, turn-off variant 1) | – | – | – | 18.9 | 17.2 | 16.6 |
| AAAGAUCAGGUGAGGAUAUACAUAUCGAAAGAUAUGUAGAAGGCACAUGAGGAUCACCCAUGUAUAAGGUUACC [Alacar 2] (Eterna round: R97, puzzle: Brourd's mod of Exclusion 4) | 313 | 52.1 | – | – | – | – |
| UAAGAAUACUGAGGAUAUGCUAGUUUAUCUCAGGCAGAAGGCGGACUCAACAUGAGGAUCACCCAUGUAAGACGGGUACUAGAU [Ex NG1 #14] (Eterna round: R96, puzzle: Exclusion NG 1) | 131 | 89 | 92.2 | – | – | – |
| UCCUCACAUGAGGAUCACCCAUGUCAGGAUAUACAAGAAAAUAACCGGAAAGACCGGAGUAGAAGGGACAUAAG [Beleonrala] (puzzle: Exclusion 1) | – | – | – | 16.1 | 31.6 | 16.1 |
| AUGUUAUUGGAAGGAUAUAGUUUACUAUUCUAACAUGAGGAUCACCCAUGUAACCUUAUGUGUAUCUAGAAGGUCCAUAACUUA (Eterna round: R96, puzzle: Exclusion NG 2) | – | – | 46.4 | – | – | – |
| UUUCUUCAUAUCACAUGAGGAUCACCCAUGUUAUUCAUCGCGUAGGAUAUCGAGAUUUUUUUUUACGAGAAGGACGUAUUGAUA [JR_ExcNG3_Sub073] (Eterna round: R96, puzzle: Exclusion NG 3) | 49 | 52.2 | 51.6 | – | – | – |
| AAUAAUAAUGUGAGGAUAUCUAGAGCCUCGGCUCUAGAGAAGGCACAUGAGGAUCACCCAUGUCUCAAUAAUAA [BmEx4/2-E5] (Eterna round: R97, puzzle: Brourd's mod of Exclusion 4) | 307 | 52.8 | – | – | – | – |
| GAAUAACAAGCGAGAUCCUACAUGAGGAUCACCCAUGUGCUCGUCUUAUAAAGUACUAUCACGAAAGUGAUAGUACA [Mat - Sensor v3 - turn-off var 1 - Eli Mod - D62] (puzzle: Sensor v3, turn-off variant 1) | – | – | – | 200 | 16.2 | 17.5 |
| UAUAAGGUAGGAUAUACGAAUAAAUAGGGUAGAAUAAUAACACAUGAGGAUCACCCAUGUAGAAGGACCAAUAU [Mat - Exclusion 2 - Mod of my Tesla design - D28] (puzzle: Exclusion 2) | – | – | – | 21.1 | 39.3 | 20.3 |
